Numbered stars: 1 amine (or outer) side, 2 acyl side, 3 side chain; on linkers, the order of the positions; unused ones are H or OH. Bridge positions count the residues as written; N and C are the ends. * marks the point of attachment. C20 diacid = O=C(O)CCCCCCCCCCCCCCCCCCC(=O)*; γGlu = O=C(O)[C@H](CCC(=O)[*:2])N[*:1]; AEEA = NCCOCCOCC(=O)O
T1: human calcitonin receptor (human, UniProt P30988 25-474)
T1 sequence (looked up): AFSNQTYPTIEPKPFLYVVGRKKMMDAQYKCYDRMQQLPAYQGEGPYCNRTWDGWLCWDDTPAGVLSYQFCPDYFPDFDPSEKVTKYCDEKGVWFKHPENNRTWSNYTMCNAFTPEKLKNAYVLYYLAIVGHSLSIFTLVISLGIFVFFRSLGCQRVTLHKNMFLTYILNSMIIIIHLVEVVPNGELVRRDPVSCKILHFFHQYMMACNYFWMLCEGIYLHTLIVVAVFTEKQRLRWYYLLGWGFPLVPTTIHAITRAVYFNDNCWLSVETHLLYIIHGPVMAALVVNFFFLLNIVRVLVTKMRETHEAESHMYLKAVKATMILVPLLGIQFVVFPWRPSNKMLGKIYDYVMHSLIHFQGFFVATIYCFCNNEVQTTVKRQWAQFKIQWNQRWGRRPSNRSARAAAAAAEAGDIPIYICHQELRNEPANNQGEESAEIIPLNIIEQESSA

T2: human amylin receptor (amylin 3(a) receptor: human calcitonin receptor with RAMP-3) (human, UniProt P30988 25-474; O60896 24-148, limits assumed)
T2 construct: whole, on cells; Whole cells in the luciferase assay (Assay II a); also called hAmylin-R; hAmylinR
T2 sequence (looked up) 1: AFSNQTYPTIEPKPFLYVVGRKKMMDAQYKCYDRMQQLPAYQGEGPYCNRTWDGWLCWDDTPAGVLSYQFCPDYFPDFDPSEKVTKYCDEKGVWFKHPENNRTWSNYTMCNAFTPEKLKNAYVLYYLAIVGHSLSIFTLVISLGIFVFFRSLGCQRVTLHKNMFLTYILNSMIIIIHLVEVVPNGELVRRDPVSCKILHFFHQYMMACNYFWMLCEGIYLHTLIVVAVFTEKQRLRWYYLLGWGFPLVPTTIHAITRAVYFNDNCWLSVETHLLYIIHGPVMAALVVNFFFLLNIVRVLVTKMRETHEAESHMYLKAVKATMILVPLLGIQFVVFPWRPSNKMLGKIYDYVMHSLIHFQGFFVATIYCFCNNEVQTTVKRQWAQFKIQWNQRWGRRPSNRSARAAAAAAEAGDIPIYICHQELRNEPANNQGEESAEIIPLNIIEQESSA
T2 sequence (looked up) 2: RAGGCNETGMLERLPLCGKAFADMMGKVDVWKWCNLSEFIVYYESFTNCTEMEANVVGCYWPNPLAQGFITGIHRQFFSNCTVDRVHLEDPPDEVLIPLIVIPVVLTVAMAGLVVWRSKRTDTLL


Columns and labels:
[1] = molecular target: T1, human calcitonin receptor; assay: cell-based or functional assay
[2] = molecular target: T2, human amylin receptor (amylin 3(a) …); assay: SPA competition binding on membranes of BHK cells with human calcitonin receptor + RAMP-3; displacement of 125I-rat amylin (Assay V)
Procedure: The binding assay was performed using scintillation proximity assay (SPA) beads (RPNQ0001) from PerkinElmer and cell membranes from the Amylin 3(a)/CRE-luc cells (as described in Assay (II)) were used. Membranes were prepared in the following way; the cells were rinsed with PBS and incubated with Versene for approximately 5 min before harvesting. The cells were flushed with PBS and the cell-suspension was centrifuged for 5 min at 1000 rpm. Cells were homogenized (ultrathurrax) in a buffer containing 20 mM Na-HEPES and 10 mM EDTA (pH 7.4) and centrifuged at 20.000 rpm for 15 min. The resulting pellet was resuspended, homogenized and centrifuged (20.000 rpm, 15 min) in a buffer containing 20 mM Na-HEPES and 0.1 mM EDTA (pH 7.4, buffer 2). The resulting pellet was resuspended in buffer 2 and protein concentration was measured (BCA protein Assay, Pierce). The homogenate was kept cold during the whole procedure. The membranes were kept at −80° C. until use. The assay was performed in a 384 well Optiplate (PerkinElmer) in a total volume of 40 ul. Membranes were mixed with SPA beads. Final concentration of membranes 35 ng/μL final and SPA beads was 0.05 mg/well. Test-compounds were dissolved in DMSO and further diluted in assay buffer (50 mM Hepes, pH 7.4, 1 mM CaCl2, 5 mM MgCl₂, 0.1% OA and 0.02% Tween20). […] The final mixture was incubated with shaking at 400 rpm for 120 min at 25° C. prior to centrifugation (1500 rpm, 10 min). Samples were analyzed on TopCounter™ (Packard). The IC₅₀ was calculated using (one site binding competition analysis) GraphPad Prism5 as a measure of receptor affinity.

Ratio hCT/hAmylin funct. [1] [ratio]	IC50 [2] [nM]	Binder
3.6	0.217	{C20 diacid-γGlu-AEEA-AEEA}-KCNTATCATQRLAEFLRHSSPNFGAIPSSTNVGSNTP-NH2 (disulfide 2-7; SMILES CC[C@H](C)[C@H](NC(=O)[C@H](C)NC(=O)CNC(=O)[C@H](Cc1ccccc1)NC(=O)[C@H](CC(N)=O)NC(=O)[C@@H]1CCCN1C(=O)[C@H](CO)NC(=O)[C@H](CO)NC(=O)[C@H](Cc1c[nH]cn1)NC(=O)[C@H](CCCNC(=N)N)NC(=O)[C@H](CC(C)C)NC(=O)[C@H](Cc1ccccc1)NC(=O)[C@H](CCC(=O)O)NC(=O)[C@H](C)NC(=O)[C@H](CC(C)C)NC(=O)[C@H](CCCNC(=N)N)NC(=O)[C@H](CCC(N)=O)NC(=O)[C@@H](NC(=O)[C@H](C)NC(=O)[C@@H]1CSSC[C@H](NC(=O)[C@H](CCCCN)NC(=O)COCCOCCNC(=O)COCCOCCNC(=O)CC[C@H](NC(=O)CCCCCCCCCCCCCCCCCCC(=O)O)C(=O)O)C(=O)N[C@@H](CC(N)=O)C(=O)N[C@@H]([C@@H](C)O)C(=O)N[C@@H](C)C(=O)N[C@@H]([C@@H](C)O)C(=O)N1)[C@@H](C)O)C(=O)N1CCC[C@H]1C(=O)N[C@@H](CO)C(=O)N[C@@H](CO)C(=O)N[C@H](C(=O)N[C@@H](CC(N)=O)C(=O)N[C@H](C(=O)NCC(=O)N[C@@H](CO)C(=O)N[C@@H](CC(N)=O)C(=O)N[C@H](C(=O)N1CCC[C@H]1C(N)=O)[C@@H](C)O)C(C)C)[C@@H](C)O, also called compound 20)
1	0.082	{C20 diacid-γGlu}-KCNTATCATQRLADFLRHSSPNFGAIPSSTNVGSNTP-NH2 (disulfide 2-7; SMILES CC[C@H](C)[C@H](NC(=O)[C@H](C)NC(=O)CNC(=O)[C@H](Cc1ccccc1)NC(=O)[C@H](CC(N)=O)NC(=O)[C@@H]1CCCN1C(=O)[C@H](CO)NC(=O)[C@H](CO)NC(=O)[C@H](Cc1c[nH]cn1)NC(=O)[C@H](CCCNC(=N)N)NC(=O)[C@H](CC(C)C)NC(=O)[C@H](Cc1ccccc1)NC(=O)[C@H](CC(=O)O)NC(=O)[C@H](C)NC(=O)[C@H](CC(C)C)NC(=O)[C@H](CCCNC(=N)N)NC(=O)[C@H](CCC(N)=O)NC(=O)[C@@H](NC(=O)[C@H](C)NC(=O)[C@@H]1CSSC[C@H](NC(=O)[C@H](CCCCN)NC(=O)CC[C@H](NC(=O)CCCCCCCCCCCCCCCCCCC(=O)O)C(=O)O)C(=O)N[C@@H](CC(N)=O)C(=O)N[C@@H]([C@@H](C)O)C(=O)N[C@@H](C)C(=O)N[C@@H]([C@@H](C)O)C(=O)N1)[C@@H](C)O)C(=O)N1CCC[C@H]1C(=O)N[C@@H](CO)C(=O)N[C@@H](CO)C(=O)N[C@H](C(=O)N[C@@H](CC(N)=O)C(=O)N[C@H](C(=O)NCC(=O)N[C@@H](CO)C(=O)N[C@@H](CC(N)=O)C(=O)N[C@H](C(=O)N1CCC[C@H]1C(N)=O)[C@@H](C)O)C(C)C)[C@@H](C)O, also called compound 10)
